Laboratory results taken from patent US20250236650A1.

Molecular target: murine CTLA-4 fused to CD3ζ, expressed on the murine T-cell hybridoma 58α-β-CTLA-4/CD3ζ (murine) (UniProt P09793)
Test: flow cytometry on 58α-β-CTLA-4/CD3ζ cells, R-PE donkey anti-mouse IgG secondary antibody, MFI

Chain of mouse anti-mouse CTLA-4 antibody 9D9, mouse IgG2b isotype (original isotype, derived from the hybridoma) (light): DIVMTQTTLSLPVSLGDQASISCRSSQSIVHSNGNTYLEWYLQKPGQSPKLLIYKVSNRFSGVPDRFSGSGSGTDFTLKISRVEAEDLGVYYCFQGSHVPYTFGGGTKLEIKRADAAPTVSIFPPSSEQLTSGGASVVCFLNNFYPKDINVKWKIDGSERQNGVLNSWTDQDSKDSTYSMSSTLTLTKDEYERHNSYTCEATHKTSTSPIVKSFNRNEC
Chain of mouse anti-mouse CTLA-4 antibody 9D9, mouse IgG2b isotype (original isotype, derived from the hybridoma) (heavy): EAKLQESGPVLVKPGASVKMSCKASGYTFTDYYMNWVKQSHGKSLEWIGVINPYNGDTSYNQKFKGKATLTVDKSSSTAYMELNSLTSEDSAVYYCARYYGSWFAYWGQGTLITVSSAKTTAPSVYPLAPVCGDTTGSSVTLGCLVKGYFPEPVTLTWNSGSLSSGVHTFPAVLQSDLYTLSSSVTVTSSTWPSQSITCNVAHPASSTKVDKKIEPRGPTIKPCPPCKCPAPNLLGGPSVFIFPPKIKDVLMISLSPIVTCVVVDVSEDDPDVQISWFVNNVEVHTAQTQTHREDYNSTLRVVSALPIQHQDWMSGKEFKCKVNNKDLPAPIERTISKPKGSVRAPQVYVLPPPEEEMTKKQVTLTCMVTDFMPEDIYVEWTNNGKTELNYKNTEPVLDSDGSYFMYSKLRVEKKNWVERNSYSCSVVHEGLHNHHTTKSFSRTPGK
Chain of mouse anti-mouse CTLA-4 antibody 9D9, mouse IgG1 isotype (light): as the sequence (light) above
Chain of mouse anti-mouse CTLA-4 antibody 9D9, mouse IgG1 isotype (heavy): as the sequence (heavy) above
Chain of mouse anti-mouse CTLA-4 antibody 9D9, mouse IgG2a isotype (light): as the sequence (light) above
Chain of mouse anti-mouse CTLA-4 antibody 9D9, mouse IgG2a isotype (heavy): as the sequence (heavy) above

| EC50 (read off the curve) | Substance |
| --- | --- |
| 0.4 µg/mL | mouse anti-mouse CTLA-4 antibody 9D9, mouse IgG2b isotype (original isotype, derived from the hybridoma) |
| 0.7 µg/mL | mouse anti-mouse CTLA-4 antibody 9D9, mouse IgG2a isotype |
| 0.2 µg/mL | mouse anti-mouse CTLA-4 antibody 9D9, mouse IgG1 isotype containing a D265A mutation (from UniProt P01868 1-324) |
| 0.6 µg/mL | mouse anti-mouse CTLA-4 antibody 9D9, mouse IgG1 isotype |
